Key:
[1] = target: recombinant HA, subtype H3 (A/Wyoming/3/2003(H3N2)) (influenza A virus A/Wyoming/3/2003 …); experiment: ELISA, coated HA, IgG 5 µg/ml
[2] = target: full-length HA from isolate A/Vietnam/1194/2004 (H5N1TV) on PER.C6 cells (influenza A virus A/Vietnam/1194/2004 …, UniProt Q80A26 6-554); experiment: flow cytometry, transfected PER.C6 cells
[3] = target: recombinant HA, subtype H1 (A/New Caledonia/20/99 (H1N1)) (influenza A virus A/New Caledonia/20/99 …, UniProt Q289M7 18-565); experiment: ELISA, coated HA, IgG 5 µg/ml
[4] = target: recombinant HA, subtype H5 (A/Vietnam/1203/2004 (H5N1)) (influenza A virus A/Vietnam/1203/2004 …, UniProt Q80A26 6-554); experiment: ELISA, coated HA, IgG 5 µg/ml

Binder	OD 492 nm [1] [OD 492 nm]	flow cytometry signal at 0.1 µg/ml [2]	flow cytometry signal at 1 µg/ml [2]	flow cytometry signal at 10 µg/ml [2]	OD 492 nm [3] [OD 492 nm]	OD 492 nm [4] [OD 492 nm]
CR6329 (antibody, V domains shown) VH: EVQLVQSGAEVKKPGSSVKVSCKASGGIFRSNSISWVRQAPGQGLEWMGGIFALFGTTDYAQKFQGRVTITADESSTTVYLELSSLTSEDTAVYYCARGSGYTTRNYFDYWGQGTLVTVSS VL: EIVLTQSPGTLSLSPGERATLSCRASQSVSSNYLGWYQQKPGQAPRLLIYGASSRASGIPDRFSGGGSGTDFTLTISRLEPEDFAVYYCQQYGSSPLTFGGGTKVEIKR	0.08					
CR6344 (antibody, V domains shown) VH: QVQLVQSGAEVKKPGSSVRVSCKASGSIFRNYAMSWVRQAPGQGLEWMGGIIAIFGTPKYAQKFQGRVTITADESTSTVYMELSGLRSEDTAMYYCARIPHYNFGSGSYFDYWGQGTLVTVSS VL: TVLTQPPSVSGAPGQRVTISCTGSSSNIGAGYDVHWYQQLPGTAPKLLIYGNSNRPSGVPDRFSGSKSGTSATLGITGLQTGDEADYYCGTWDSSLSAYVFGTGTKVTVLG	0.09	107	328	768	1.8	1.31
CR6268 (antibody, V domains shown) VH: QVQLVQSGAEVKKPGSSVKVSCKASGGTFSSYAISWVRQAPGQGLEWMGGIMGMFGTTNYAQKFQGRVTITADEFTSAAYMELRSLRSEDTAVYYCARSSGYYPEYFQDWGQGTLVTVSS VL: QSVLTQPPSESVSPGQTASVTCSGHKLGDKYVSWYQQKPGQSPVLLIYQDNRRPSGIPERFIGSNSGNTATLTISGTQALDEADYYCQAWDSSTAVFGGGTKLTVLG	0.08	43.7	219	422	1.78	1.3
CR6336 (antibody, V domains shown) VH: QMQLVQSGAEVKKPGSSVKVSCKASGGTFSSYAISWVRQAPGQGLEWMGGIFGMFGTANYAQKFQGRVTITADEFTSAAYMELSSLGSEDTAMYYCARSSGYYPQYFQDWGQGTLVTVSS VL: EIVMTQSPGTLSLSPGQRATLSCRASQSVSSSYLAWYQQKPGQAPRLLMYGASSRATGIPDRFSGSGSGTDFTLTISRLEPEDFAVYYCQQYGSSSLTFGGGTKLEIKR	0.1				1.92	1.41
CR6334 (antibody, V domains shown) VH: EVQLVETGAEVKKPGSSVKVPCKSSGSPFRSNAVSWVRQAPGQGLEWVGGILGVFGSPSYAQKFQGRVTITADESTNTVHMELRGLRSEDTAVYYCARGPTYYYSYMDVWGKGTTVTVSS VL: SYVLTQPPSESVAPGQTARITCGGNNIGRNSVHWYQQKPGQAPVLVVYDDSDRPSGIPERFSGSKSGNTATLIISRVEVGDEADYYCQVWHSSSDHYVFGTGTKVTVLG	0.07				2.04	1.19
CR6328 (antibody, V domains shown) VH: EVQLVESGAEVKKPGSSVKVSCKASGHIFSGYAISWVRQAPGQGLEWMGGIIPIFGTTNYAQKFQGRVTITADQSTSTAYMDLSNLRSEDTAVYYCARVKDGYCTLTSCPVGWYFDLWGRGTLVTVSS VL: not shown	0.07				2.43	1.78
CR6255 (antibody, V domains shown) VH: EVQLVESGAEVKKPGSSVKVSCKASGGPFRSYAISWVRQAPGQGPEWMGGIIPIFGTTKYAPKFQGRVTITADDFAGTVYMELSSLRSEDTAMYYCAKHMGYQVRETMDVWGKGTTVTVSS VL: SYVLTQPPSASGTPGQRVTISCSGSTFNIGSNAVDWYRQLPGTAPKLLIYSNNQRPSGVPDRFSGSRSGTSASLAISGLQSEDEADYYCAAWDDILNVPVFGGGTKLTVLG	0.08	60.4	257	414	1.91	1.44
CR6314 (antibody, V domains shown) VH: EVQLVESGAEVKKPGSSVKVSCKASGGPFRSYAISWVRQAPGQGPEWMGGIIPIFGTTKYAPKFQGRVTITADDFAGTVYMELSSLRSEDTAMYYCAKHMGYQVRETMDVWGKGTTVTVSS VL: SYVLTQPPSASGTPGQRVTISCSGSSSNIGSNYVYWYQQLPGTAPKLLIYRDGQRPSGVPDRFSGSKSGTSASLAISGLRSDDEADYYCATWDDNLSGPVFGGGTKLTVLG	0.07	44.5	167	400	1.93	1.48
CR6310 (antibody, V domains shown) VH: EVQLVESGAEVKKPGSSVKVSCKASGGPFRSYAISWVRQAPGQGPEWMGGIIPIFGTTKYAPKFQGRVTITADDFAGTVYMELSSLRSEDTAMYYCAKHMGYQVRETMDVWGKGTTVTVSS VL: SYVLTQPPSVSVAPGQTARITCGGNNIGSKSVHWYQQKPGQAPVLVVYDDSDRPSGIPERFSGSNSGNTATLTISRVEAGDEADYYCQVWDSSSDHAVFGGGTQLTVLG	0.08					1.37
CR6260 (antibody, V domains shown) VH: EVQLVESGAEVKKPGSSVKVSCKASGGPFRSYAISWVRQAPGQGPEWMGGIIPIFGTTKYAPKFQGRVTITADDFAGTVYMELSSLRSEDTAMYYCAKHMGYQVRETMDVWGKGTTVTVSS VL: SYVLTQPPSVSGTPGQRVTISCSGSRSNVGDNSVYWYQHVPEMAPKLLVYKNTQRPSGVPARFSGSKSGTSASLAIIGLQSGDEADYYCVAWDDSVDGYVFGSGTKVTVLG	0.08	31.1	168	323		1.45
CR6261 (antibody, V domains shown) VH: EVQLVESGAEVKKPGSSVKVSCKASGGPFRSYAISWVRQAPGQGPEWMGGIIPIFGTTKYAPKFQGRVTITADDFAGTVYMELSSLRSEDTAMYYCAKHMGYQVRETMDVWGKGTTVTVSS VL: QSVLTQPPSVSAAPGQKVTISCSGSSSNIGNDYVSWYQQLPGTAPKLLIYDNNKRPSGIPDRFSGSKSGTSATLGITGLQTGDEANYYCATWDRRPTAYVVFGGGTKLTVLG	0.07					
CR6327 (antibody, V domains shown) VH: EVQLVETGAEVKKPGSSVKVSCKASGGTFRTHAISWVRQAPGQGLEWMGGIIAIFGTANYAQKFQGRITITADESTSTAYMELSSLRSEDTAVYFCARGSGYHISTPFDNWGQGTLVTVSS VL: SYVLTQPPSVSVAPGQTARITCGGNNIGSKGVHWYQQKPGQAPVLVVYDDSDRPSGIPERFSGSNSGNTATLTISRVEAGDEADYYCQVWDSSSDHVVFGGGTKLTVLG	0.08					1.11
CR6331 (antibody, V domains shown) VH: EVQLVESGAEVKKPGSSVKVSCKASGGTFSSYAISWVRQAPGQGLEWMGGIIGMFGTANYAQKFQGRVTITADEFTSTAYMELSSLRSEDTAVYYCARGNYYYESSLDYWGQGTLVTVSS VL: QSVVTQPPSVSVAPGQTARITCGGNNIGSKSVHWYQQKPGQAPVLVVYDDSDRPSGIPERFSGSNSGNTATLTISRVEAGDEADYYCQVWDSSSDHYVFGTGTKVTVLG	0.06					1.32
CR6262 (antibody, V domains shown) VH: QVQLQQSGAEVKKPGSSVKVSCKVSGVIFSGSAISWVRQAPGQGLEWMGGISPLFGTTNYAQKFQGRVTITADQSTNTTYMEVNSLRYEDTAVYFCARGPKYYSEYMDVWGKGTTVTVSS VL: DIQMTQSPSSLSASVGDRVTITCRASQGISSYLAWYQQKPGKVPTLLIYDASTLRSGVPSRFSGSGSATDFTLTISSLQPEDVATYYCQRYNSAPPITFGQGTRLEIKR	0.09	8.06	20.9	84.3	1.48	1.02
CR6332 (antibody, V domains shown) VH: QVQLVQSGAEVKKPGSSVKVSCKASGGPFRNFAINWVRQAPGQGLEWMGGIIAVFGTTKYAHKFQGRVTITADDSTNTAYMELGSLKSEDTAVYYCARGPHYYSSYMDVWGEGTTVTVSS VL: DIQLTQSPSSLSASVGDRVTITCRASQGISTYLAWYQQKPGKVPKLLIYAASTLQSGVPSRFSGSGSGTDFTLTISSLQPEDVATYYCQKYNSAPSFGPGTKVDIKR	0.15				2.2	1.65
CR6325 (antibody, V domains shown) VH: EVQLVESGAEVKKPGSSVKVSCKASGGTFSFYSMSWVRQAPGQGLEWMGGIIPMFGTTNYAQKFQGRVTITAVESTSTAYMEVSSLRSEDTAVYYCARGDKGIYYYYMDVWGKGTTVTVSS VL: QSALTQPASVSGSPGQSITISCTGTSSDVGGYNYVSWYQQHPGKAPKLMIYEVSNRPSGVSNRFSGSKSGNTASLTISGLQAEDEADYYCSSYTSSSTLVFGTGTKVTVLG	0.07					

— patent US20090311265A1 (CRUCELL HOLLAND B V, published 2009)
